This assay concerns the target IL-15RβγC. Kind of assay: cell-based or functional assay.

In the case of “ALT-803 (IL-15N72D:IL-15RαSu/Fc complex) (from UniProt Q13261 31-95) (Fc fusion)”, the EC50 of ALT-803 stimulated proliferation of IL-15RβγC-bearing cells stood at 16 pM.

The values above are taken from patent US20210188933A1.
